# Experimental data taken from the nanobody polyreactivity screen of Harvey et al. (2022).
# Assay: yeast display, Sf9 membrane polyspecificity reagent, FACS + sequencing; frameworks hold sequencing errors
# In short: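 Galactose-induced (36–48 hours) yeast carrying a synthetic nanobody display library were exposed to 10% biotinylated, detergent-solubilized Sf9 membrane reagent at 4 °C for 1 hour. FACS followed streptavidin microbead enrichment, using low and high (top ~1%) gates for expression (anti-HA) and reagent binding (streptavidin). Colony PCR, MiSeq 2 × 250 sequencing and CDR-length filtering followed. Labels for polyreactivity reflect the gate of origin.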
row,Sequence,polyreactivity (PSR sort gate)
1,QVQLVESGGGLVQAGGSLRLSCAASGSIFYVYAMGWYRQAPGKERELVASINKYGGSTYYADSVKGRFTISRDNAKNTVYLQMNSLKPADTAVYYCAARTGWPRVGFQYPAHVGFDYWGQGTQVTVSS,low polyreactivity
2,QVQLVESGGGLVQAGGSLRLSCAASGSIFYVYAMGWYRQSPGKERELVAAITSSGTTNYADSVKGRFTISRDNAKNTVYLLMNSLKPEDSAVYYCAADPDSGHVRFDYWGQGTQVTVSS,low polyreactivity
3,QVQLVESGGGLVQAGGSLRLSCAASGSIFYWNAMGWYRQAPGKEREFVADISQSGDSTYYADSVKGRFTISRDNAKNTVYLQMNSLKPEDTAVYYCAAQFLSYAWDYDYWGQGTQVTVSS,low polyreactivity
4,QVQLVESGGGLVQAGGSLRLSCAASGSIFYWYAMGWYRPAPGKERELVAAISYSGGSTYADSVKGRFTISRDNAKNTVYLQMNSLKPEDTAVYYCAVGYYRFGRFLGYYWGQGTQVTVSS,high polyreactivity
5,QVQLVESGGGLVQAGGSLRLSCAASGSIFYWYAMGWYRQAPGKEREFVAGITGRGGSTYYADSVKGRFTISRDNAKNTVYLQMNSLKPEDTAVYYADFVKYGKYYQRYDYWGQGTQVTVSS,high polyreactivity
6,QVQLVESGGGLVQAGGSLRLSCAASGSIFYWYAMGWYRQAPGKERELVAAITWSGGSTYYADSVKGRFTISRDNAKNTVYLQMNSLKPEDTAVYYCNKVPYYGAYSSYDYWGQGTQVTVSS,high polyreactivity
7,QVQLVESGGGLVQAGGSLRLSCAASGSIFYWYAMGWYRQAPGKERELVASIRWSGGTYYADSVKGRFTISRDNAKNTVYLQMNSLKPEDTAVYYCNKGGGRGHFEYWGQGTQVTVSS,low polyreactivity
8,QVQLVESGGGLVQAGGSLRLSCAASGSIFYWYAMGWYRQARGKERELVAGITYSGGNTYYADSVKGRFTISRDNAKNTVYLQMNSLKPEDTAVYYCAATRGYWRKWRMDYWGQGTQVTVSS,high polyreactivity
9,QVQLVESGGGLVQAGGSLRLSCAASGSIFYWYDMGWYRQAPGKERELVAAITNDGDSTYYADSVKGRFTISRDNAKNTVYLQMNSLKPEDTAVYYCAADVLFYYEYGSWGQGTQVTVSS,low polyreactivity
10,QVQLVESGGGLVQAGGSLRLSCAASGSIFYYNAMGWYRQAPGKERELVAAIRRSGGRTYYADSVKGRFTISRDNAKNTVYLQMNSLKPEDTAVYYCAAVHYDRVTGQVDHDYWGQGTQVTVSS,high polyreactivity
11,QVQLVESGGGLVQAGGSLRLSCAASGSIFYYNAMGWYRQAPGKERELVAAISWSGDSTYYADSVKGRFTISRDNAKNTVYLQMNSLKPEDTAVYYCNTDLVPWTEYWYDYWGQGTQVTVSS,low polyreactivity
12,QVQLVESGGGLVQAGGSLRLSCAASGSIFYYNAMGWYRQAPGKERELVAAITRSGGRTYYADSVKGRFTISRDNAKTTVYLQMNSLKPEDTAVYSCAARSAGPVTTLKYYYWGHGTQVTVSS,high polyreactivity
13,QVQLVESGGGLVQAGGSLRLSCAASGSIFYYNAMGWYRQAPGKERELVATIRTSGGSTYYADSVKGRFTISRDNAKNTVYLQMNSLKPVDTAVYYCAARDLRKLYSRYPYYYWGQGTQVTVSS,high polyreactivity
14,QVQLVESGGGLVQAGGSLRLSCAASGSIFYYNAMGWYRQEPGKERELVATITSAVSTNYADSVKGRFTISRDNAKNTVYLQMNSLKPEDTAVYYCATVYSLSFELDYWGQGTQVTVSS,low polyreactivity
15,QVQLVESGGGLVQAGGSLRLSCAASGSIFYYNVMGWYRQAPGKERELVAAIDIDGSTYYADSVKGRFTISRDNAKNTVYLQMNSLKPEDTAVYYCNAQAPYWFSFYSDHKYDYWGQGTQVTVSS,low polyreactivity
16,QVQLVESGGGLVQAGGSLRLSCAASGSIFYYYAMGRYRQAPGKERELVAAISSGGDTHYADSVKGRFTISRDNAKNTVYLQMNSLKPEDTAVFYCAAQRRYHQDTTIGPGNYYYWGQGTQVTVSS,low polyreactivity
